{"source": "paper PMC9360449", "about": "“Programmable RNA targeting by bacterial Argonaute nucleases with unconventional guide binding and cleavage specificity”", "key": {"[1]": {"test_system": "PnyAgo WT (Pedobacter nyackensis)", "assay": "competition", "conditions": "filter binding, 100 nM pAgo; 5'-OH; 10 mM Tris-HCl pH 7.9, 100 mM NaCl, 5 mM MgCl2 (or none), 5% glycerol, 100 ug/ml BSA, 37 C"}, "[2]": {"test_system": "PnyAgo WT (Pedobacter nyackensis)", "assay": "filter binding", "conditions": "10 mM Tris-HCl pH 7.9, 100 mM NaCl, 5 mM MgCl2 (or none), 5% glycerol, 100 ug/ml BSA, 37 C"}, "PliAgo WT [3]": {"biological_target": "T1, PliAgo WT (Pseudooceanicola lipolyticus, UniProt A0A2M8J4C7 1-789)", "T1 sequence": "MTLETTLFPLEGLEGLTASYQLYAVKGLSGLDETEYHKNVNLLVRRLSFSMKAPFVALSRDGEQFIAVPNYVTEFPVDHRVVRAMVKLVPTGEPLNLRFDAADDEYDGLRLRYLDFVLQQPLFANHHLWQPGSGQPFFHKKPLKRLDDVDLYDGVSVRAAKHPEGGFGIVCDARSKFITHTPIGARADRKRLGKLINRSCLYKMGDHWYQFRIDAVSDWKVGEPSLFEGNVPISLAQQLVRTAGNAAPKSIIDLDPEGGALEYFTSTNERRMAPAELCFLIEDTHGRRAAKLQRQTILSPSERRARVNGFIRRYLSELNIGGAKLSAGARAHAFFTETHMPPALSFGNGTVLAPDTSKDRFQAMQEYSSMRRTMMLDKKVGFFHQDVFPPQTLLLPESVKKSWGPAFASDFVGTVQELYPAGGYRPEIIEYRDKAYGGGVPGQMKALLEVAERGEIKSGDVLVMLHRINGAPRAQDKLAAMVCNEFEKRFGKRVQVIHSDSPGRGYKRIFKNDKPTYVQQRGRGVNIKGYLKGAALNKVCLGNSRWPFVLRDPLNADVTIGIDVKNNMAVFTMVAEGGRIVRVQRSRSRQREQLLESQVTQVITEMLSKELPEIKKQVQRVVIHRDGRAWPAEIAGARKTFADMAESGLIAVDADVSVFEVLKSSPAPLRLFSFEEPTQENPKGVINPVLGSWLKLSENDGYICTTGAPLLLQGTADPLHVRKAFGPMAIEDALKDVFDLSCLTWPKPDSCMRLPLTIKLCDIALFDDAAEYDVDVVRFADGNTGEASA", "assay": "X-ray crystallography; 10 mM Tris-HCl pH 7.9, 100 mM NaCl, 5 mM MgCl2 (or none), 5% glycerol, 100 ug/ml BSA, 37 C", "conditions": "protein: recombinant; tags: N-His6; single strand"}, "PliAgo WT [4]": {"biological_target": "T1, PliAgo WT", "assay": "X-ray crystallography; no Mg2+", "conditions": "protein: recombinant; tags: N-His6; single strand"}}}
{"molecule": "GTTAGACTTTAAGTCAAT [5'-OH guide DNA (G-guide)]", "values": [{"measurement": "binding signal (fold Kd increase vs 5'-P guide)", "setting": "[1]", "result": 12}]}
{"molecule": "GTTAGACTTTAAGTCAAT [5'-P guide DNA (G-guide)]", "values": [{"measurement": "Kd", "setting": "[2]; 5 mM Mg2+, 5'-phosphate", "result": 31, "unit": "nM"}, {"measurement": "Kd", "setting": "[2]; no Mg2+, 5'-phosphate", "result": 390, "unit": "nM"}]}
{"molecule": "GUUAGACUUUAAGUCAAU [guide RNA (G-guide-RNA)]", "values": [{"measurement": "Kd", "setting": "[2]; 5 mM Mg2+, 5'-phosphate", "result": "> 1000", "unit": "nM"}]}
{"molecule": "GTTAGACTTTAAGTCAAT / UUUAUCAAAAAGAGUAUUGACUUAAAGUCUAACCUAUAGGAUACUUACAG [guide DNA / G-target-RNA]", "values": [{"measurement": "Kd", "setting": "[2]; guide-loaded, 5'-phosphate on guide", "result": 7.5, "unit": "nM"}]}
{"molecule": "TTACTGCACAGGTGACGA (ssDNA, 5'-OH)", "note": "[3D-guide OH-gDNA]", "values": [{"measurement": "binding result", "setting": "PliAgo WT [3]", "result": "binds"}]}
{"molecule": "TTACTGCACAGGTGACGA (ssDNA, 5'-phosphate)", "note": "[3D-guide P-gDNA]", "values": [{"measurement": "binding result", "setting": "PliAgo WT [4]", "result": "binds"}]}
